Test results published in US20210246166A1 (Bayer, published 2021).
Bridge positions count the residues as written; N and C are the ends. Square brackets hold non-standard residues; d marks the D form. Ends that are not written are not given here. Pro(cis-4-CF3) = O=C(O)[C@@H]1C[C@H](C(F)(F)F)CN1; Oic = O=C(O)[C@@H]1C[C@@H]2CCCC[C@@H]2N1; PEG8 = NCCOCCOCCOCCOCCOCCOCCOCCOCCC(=O)O; Pro‑D2 = L-proline (3,4-2H), deuterated; PEG7 = NCCOCCOCCOCCOCCOCCOCCOCCC(=O)O; PEG6 = NCCOCCOCCOCCOCCOCCOCCC(=O)O; tBuAla = CC(C)(C)C[C@H](N)C(=O)O; Pen = CC(C)(S)[C@H](N)C(=O)O; NMeA = CN[C@@H](C)C(=O)O; Sar = CNCC(=O)O

T1: recombinant rat MASP1 active protease (amino acids 302-704, C-terminal His Tag) (rat, UniProt Q8CHN8 302-704)
T1 sequence: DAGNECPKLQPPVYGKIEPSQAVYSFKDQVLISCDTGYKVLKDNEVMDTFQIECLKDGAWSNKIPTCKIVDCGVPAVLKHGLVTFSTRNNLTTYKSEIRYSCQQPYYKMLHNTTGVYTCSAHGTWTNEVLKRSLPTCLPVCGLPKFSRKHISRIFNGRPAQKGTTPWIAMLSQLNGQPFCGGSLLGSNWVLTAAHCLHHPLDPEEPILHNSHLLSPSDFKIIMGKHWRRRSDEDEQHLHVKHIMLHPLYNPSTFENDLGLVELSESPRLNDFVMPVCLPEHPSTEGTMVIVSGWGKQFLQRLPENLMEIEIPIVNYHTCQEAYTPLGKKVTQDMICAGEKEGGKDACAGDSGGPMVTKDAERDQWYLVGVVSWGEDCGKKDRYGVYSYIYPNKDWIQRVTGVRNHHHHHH


Experiments:
[1] = target: T1, recombinant rat MASP1 active protease …; assay: cell-based or functional assay
[2] = target: recombinant rat MASP2 active protease (amino acids 296-685, C-terminal His Tag) (rat, UniProt Q9JJS8 296-685); assay: cell-based or functional assay
recombinant rat MASP2 active protease (amino acids 296-685, C-terminal His Tag), sequence (Q9JJS8 other isoform, or with tags, fused parts or gaps limits assumed): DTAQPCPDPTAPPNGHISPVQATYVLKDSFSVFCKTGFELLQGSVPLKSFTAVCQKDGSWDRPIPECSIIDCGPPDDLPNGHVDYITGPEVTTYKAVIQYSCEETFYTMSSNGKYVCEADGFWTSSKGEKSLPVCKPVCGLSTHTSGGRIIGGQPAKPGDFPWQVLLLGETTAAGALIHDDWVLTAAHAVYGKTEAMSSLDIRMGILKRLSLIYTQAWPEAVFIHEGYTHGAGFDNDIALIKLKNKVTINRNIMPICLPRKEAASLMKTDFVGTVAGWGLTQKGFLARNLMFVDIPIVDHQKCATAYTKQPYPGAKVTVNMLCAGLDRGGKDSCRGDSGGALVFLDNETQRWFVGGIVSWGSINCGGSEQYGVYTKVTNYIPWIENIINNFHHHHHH

| Binder | rat MASP1 IC50 [1] [nM] | rat MASP2 IC50 [2] [nM] |
| --- | --- | --- |
| AICSRS[tBuAla]P[Pro(cis-4-CF3)]ICIPD-NH2 (disulfide 3-11; N-terminus assumed; SMILES CC[C@H](C)[C@H](NC(=O)[C@H](C)N)C(=O)N[C@H]1CSSC[C@@H](C(=O)N[C@H](C(=O)N2CCC[C@H]2C(=O)N[C@@H](CC(=O)O)C(N)=O)[C@@H](C)CC)NC(=O)[C@H]([C@@H](C)CC)NC(=O)[C@@H]2C[C@H](C(F)(F)F)CN2C(=O)[C@@H]2CCCN2C(=O)[C@H](CC(C)(C)C)NC(=O)[C@H](CO)NC(=O)[C@H](CCCNC(=N)N)NC(=O)[C@H](CO)NC1=O) [Example 158: AIC+SRS-((tBu)A)-P-((4-CF3)P)-IC+IPD-NH2] | 247 | 420 |
| [Sar]ICSRS[tBuAla]PPI[Pen]IP-NH2 (disulfide 3-11; N-terminus assumed; SMILES CC[C@H](C)[C@H](NC(=O)CNC)C(=O)N[C@H]1CSSC(C)(C)[C@@H](C(=O)N[C@H](C(=O)N2CCC[C@H]2C(N)=O)[C@@H](C)CC)NC(=O)[C@H]([C@@H](C)CC)NC(=O)[C@@H]2CCCN2C(=O)[C@@H]2CCCN2C(=O)[C@H](CC(C)(C)C)NC(=O)[C@H](CO)NC(=O)[C@H](CCCNC(=N)N)NC(=O)[C@H](CO)NC1=O) [Example 156: ((N-Me)G)-IC+SRS-((tBu)A)-PPI-(Pen)+IP-NH2] | 21 | 16 |
| [Sar]ICSRSLP[Oic]I[Pen]IP[PEG7]-NH2 (disulfide 3-11; N-terminus assumed; SMILES CC[C@H](C)[C@H](NC(=O)CNC)C(=O)N[C@H]1CSSC(C)(C)[C@@H](C(=O)N[C@H](C(=O)N2CCC[C@H]2C(=O)NCCOCCOCCOCCOCCOCCOCCOCCC(N)=O)[C@@H](C)CC)NC(=O)[C@H]([C@@H](C)CC)NC(=O)[C@@H]2C[C@@H]3CCCC[C@@H]3N2C(=O)[C@@H]2CCCN2C(=O)[C@H](CC(C)C)NC(=O)[C@H](CO)NC(=O)[C@H](CCCNC(=N)N)NC(=O)[C@H](CO)NC1=O) [Example 150: ((N-Me)G)-IC+SRSLP-(Oic)-I-(Pen)+IP-(PEG7(25 atoms))-NH2] | 120 | 53 |
| [Sar]ICSRSLP[Oic]I[Pen]IPD[PEG6]-NH2 (disulfide 3-11; N-terminus assumed; SMILES CC[C@H](C)[C@H](NC(=O)CNC)C(=O)N[C@H]1CSSC(C)(C)[C@@H](C(=O)N[C@H](C(=O)N2CCC[C@H]2C(=O)N[C@@H](CC(=O)O)C(=O)NCCOCCOCCOCCOCCOCCOCCC(N)=O)[C@@H](C)CC)NC(=O)[C@H]([C@@H](C)CC)NC(=O)[C@@H]2C[C@@H]3CCCC[C@@H]3N2C(=O)[C@@H]2CCCN2C(=O)[C@H](CC(C)C)NC(=O)[C@H](CO)NC(=O)[C@H](CCCNC(=N)N)NC(=O)[C@H](CO)NC1=O) [Example 146: ((N-Me)G)-IC+SRSLP-(Oic)-I-(Pen)+IPD-(PEG5(22 atoms))-NH2] | 110 | 68 |
| AICSRSL[Pro‑D2][Oic]I[Pen]IPD-OH (disulfide 3-11) [Example 142: AIC+SRSL-(Pro-D2)-(Oic)-I-(Pen)+IPD-OH] | 10.9 | 17.1 |
| [Sar]ICSRSLP[Oic]I[Pen]IP-NH2 (disulfide 3-11; N-terminus assumed; SMILES CC[C@H](C)[C@H](NC(=O)CNC)C(=O)N[C@H]1CSSC(C)(C)[C@@H](C(=O)N[C@H](C(=O)N2CCC[C@H]2C(N)=O)[C@@H](C)CC)NC(=O)[C@H]([C@@H](C)CC)NC(=O)[C@@H]2C[C@@H]3CCCC[C@@H]3N2C(=O)[C@@H]2CCCN2C(=O)[C@H](CC(C)C)NC(=O)[C@H](CO)NC(=O)[C@H](CCCNC(=N)N)NC(=O)[C@H](CO)NC1=O) [Example 109: ((N-Me)G)-IC+SRSLP-(Oic)-I-(Pen)+IP-NH2] | 76 | 42 |

Further lines, results first:

| rat MASP1 IC50 [1] [nM] | rat MASP2 IC50 [2] [nM] | Binder |
| --- | --- | --- |
| 40 | 50.3 | AICSRSLP[Oic]ICIPD-OH (disulfide 3-11; N-terminus assumed; SMILES CC[C@H](C)[C@H](NC(=O)[C@H](C)N)C(=O)N[C@H]1CSSC[C@@H](C(=O)N[C@H](C(=O)N2CCC[C@H]2C(=O)N[C@@H](CC(=O)O)C(=O)O)[C@@H](C)CC)NC(=O)[C@H]([C@@H](C)CC)NC(=O)[C@@H]2C[C@@H]3CCCC[C@@H]3N2C(=O)[C@@H]2CCCN2C(=O)[C@H](CC(C)C)NC(=O)[C@H](CO)NC(=O)[C@H](CCCNC(=N)N)NC(=O)[C@H](CO)NC1=O) [Example 153: AIC+SRSLP-(Oic)-IC+IPD-OH] |
| 11 | 10 | [NMeA]ICSRS[tBuAla]PPI[Pen]IP-NH2 (disulfide 3-11; N-terminus assumed; SMILES CC[C@H](C)[C@H](NC(=O)[C@H](C)NC)C(=O)N[C@H]1CSSC(C)(C)[C@@H](C(=O)N[C@H](C(=O)N2CCC[C@H]2C(N)=O)[C@@H](C)CC)NC(=O)[C@H]([C@@H](C)CC)NC(=O)[C@@H]2CCCN2C(=O)[C@@H]2CCCN2C(=O)[C@H](CC(C)(C)C)NC(=O)[C@H](CO)NC(=O)[C@H](CCCNC(=N)N)NC(=O)[C@H](CO)NC1=O) [Example 126: ((N-Me)A)-IC+SRS-((tBu)A)-PPI-(Pen)+IP-NH2] |
| 140 | 53 | [Sar]ICSRSLP[Oic]I[Pen]IP[PEG8]-NH2 (disulfide 3-11; N-terminus assumed; SMILES CC[C@H](C)[C@H](NC(=O)CNC)C(=O)N[C@H]1CSSC(C)(C)[C@@H](C(=O)N[C@H](C(=O)N2CCC[C@H]2C(=O)NCCOCCOCCOCCOCCOCCOCCOCCOCCC(N)=O)[C@@H](C)CC)NC(=O)[C@H]([C@@H](C)CC)NC(=O)[C@@H]2C[C@@H]3CCCC[C@@H]3N2C(=O)[C@@H]2CCCN2C(=O)[C@H](CC(C)C)NC(=O)[C@H](CO)NC(=O)[C@H](CCCNC(=N)N)NC(=O)[C@H](CO)NC1=O) [Example 168: ((N-Me)G)-IC+SRSLP-(Oic)-I-(Pen)+IP-(PEG8(28 atoms))-NH2] |
| 140 | 95 | [Sar]ICSRSLP[Oic]I[Pen]IPD[PEG8]-NH2 (disulfide 3-11; N-terminus assumed; SMILES CC[C@H](C)[C@H](NC(=O)CNC)C(=O)N[C@H]1CSSC(C)(C)[C@@H](C(=O)N[C@H](C(=O)N2CCC[C@H]2C(=O)N[C@@H](CC(=O)O)C(=O)NCCOCCOCCOCCOCCOCCOCCOCCOCCC(N)=O)[C@@H](C)CC)NC(=O)[C@H]([C@@H](C)CC)NC(=O)[C@@H]2C[C@@H]3CCCC[C@@H]3N2C(=O)[C@@H]2CCCN2C(=O)[C@H](CC(C)C)NC(=O)[C@H](CO)NC(=O)[C@H](CCCNC(=N)N)NC(=O)[C@H](CO)NC1=O) [Example 141: ((N-Me)G)-IC+SRSLP-(Oic)-I-(Pen)+IPD-(PEG8(28 atoms))-NH2] |
| 100 | 50 | [Sar]ICSRSLP[Oic]I[Pen]IP[PEG6]-NH2 (disulfide 3-11; N-terminus assumed; SMILES CC[C@H](C)[C@H](NC(=O)CNC)C(=O)N[C@H]1CSSC(C)(C)[C@@H](C(=O)N[C@H](C(=O)N2CCC[C@H]2C(=O)NCCOCCOCCOCCOCCOCCOCCC(N)=O)[C@@H](C)CC)NC(=O)[C@H]([C@@H](C)CC)NC(=O)[C@@H]2C[C@@H]3CCCC[C@@H]3N2C(=O)[C@@H]2CCCN2C(=O)[C@H](CC(C)C)NC(=O)[C@H](CO)NC(=O)[C@H](CCCNC(=N)N)NC(=O)[C@H](CO)NC1=O) [Example 140: ((N-Me)G)-IC+SRSLP-(Oic)-I-(Pen)+IP-(PEG5(22 atoms))-NH2] |
